Measurements from paper PMC4363726 (Molecules and Cells, 2015).

T1: AGL15-GST (Arabidopsis thaliana, UniProt Q38847 1-268)
T1 sequence: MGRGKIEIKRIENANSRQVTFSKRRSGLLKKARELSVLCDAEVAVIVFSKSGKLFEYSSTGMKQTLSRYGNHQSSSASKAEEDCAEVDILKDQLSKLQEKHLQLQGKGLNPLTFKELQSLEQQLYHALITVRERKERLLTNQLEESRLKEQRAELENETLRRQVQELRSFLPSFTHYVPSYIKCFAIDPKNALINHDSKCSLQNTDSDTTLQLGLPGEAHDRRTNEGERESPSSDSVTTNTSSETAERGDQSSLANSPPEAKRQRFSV

T2: AGL15-His (Arabidopsis thaliana, UniProt Q38847 1-268)
T2 sequence (looked up): T1 sequence

B1: miR156c CArG I (dsDNA)
DNA 1: AAAAAAATTGCTATTTTTTGAAAATGTTAC
DNA 2: GTAACATTTTCAAAAAATAGCAATTTTTTT
B2: miR156a CArG IV (dsDNA)
DNA 1: CAAGTTCATTGCCATTTTTAGGTCTCTCTA
DNA 2: TAGAGAGACCTAAAAATGGCAATGAACTTG
B3: miR156c NC (dsDNA)
DNA 1: TTCAGACATCTGTCCCATTGCATGTAAGAG
DNA 2: CTCTTACATGCAATGGGACAGATGTCTGAA
B4: miR156a CArG I (dsDNA)
DNA 1: TGGTGAAAAACAATTAATAGAAAATTAATT
DNA 2: AATTAATTTTCTATTAATTGTTTTTCACCA
B5: miR156a CArG II (dsDNA)
DNA 1: ATATATCTTCCATAATTTTGCAAGTCTTTA
DNA 2: TAAAGACTTGCAAAATTATGGAAGATATAT
B6: miR156a CArG III (dsDNA)
DNA 1: ATAATAATAATCTAATTAAAGGAGATGAGA
DNA 2: TCTCATCTCCTTTAATTAGATTATTATTAT
B7: miR156c CArG III (dsDNA)
DNA 1: TTGTCGTTGCCGTTTATAGGTTATGAGATT
DNA 2: AATCTCATAACCTATAAACGGCAACGACAA
B8: GST-AGL18 (natural protein, Arabidopsis thaliana, UniProt Q9M2K8 1-256, looked up)
chain: MGRGRIEIKKIENINSRQVTFSKRRNGLIKKAKELSILCDAEVALIIFSSTGKIYDFSSVCMEQILSRYGYTTASTEHKQQREHQLLICASHGNEAVLRNDDSMKGELERLQLAIERLKGKELEGMSFPDLISLENQLNESLHSVKDQKTQILLNQIERSRIQEKKALEENQILRKQVEMLGRGSGPKVLNERPQDSSPEADPESSSSEEDENDNEEHHSDTSLQLGLSSTGYCTKRKKPKIELVCDNSGSQVASD
B9: miR156a NC (dsDNA)
DNA 1: TAAGAGAGATAAAGAAAGCGACAAGAGCCA
DNA 2: TGGCTCTTGTCGCTTTCTTTATCTCTCTTA
B10: miR156c CArG II (dsDNA)
DNA 1: TGAATTAATTCTTAAAATTGTGAAATAATT
DNA 2: AATTATTTCACAATTTTAAGAATTAATTCA
B11: miR156a CArG V (dsDNA)
DNA 1: CTTTTTTTTGCTTTTTATGGTTATGTTTTT
DNA 2: AAAAACATAACCATAAAAAGCAAAAAAAAG

Key:
AGL15-GST [1] = molecular target: T1, AGL15-GST; assay: EMSA
AGL15-GST [2] = molecular target: T1, AGL15-GST; assay: competition
AGL15-His = molecular target: T2, AGL15-His; assay: pull-down

Row | Binder | binding result (AGL15-GST [1]) | also measured
1 | B1 | no binding | –
2 | B2 | – | binding result (AGL15-GST [2]): binds
3 | B3 | no binding | –
4 | B4 | no binding | –
5 | B5 | no binding | –
6 | B6 | no binding | –
7 | B7 | – | binding result (AGL15-GST [2]): binds
8 | B8 | – | binding result (AGL15-His): binds
9 | B9 | no binding | –
10 | B10 | no binding | –
11 | B11 | – | binding result (AGL15-GST [2]): binds
